Test results taken from patent US20230287095A1 (published 2023).
Numbering of substitutions follows the chain as printed.

T1: human pro-EMAPII (human, UniProt Q12904 1-312)
T1 chain: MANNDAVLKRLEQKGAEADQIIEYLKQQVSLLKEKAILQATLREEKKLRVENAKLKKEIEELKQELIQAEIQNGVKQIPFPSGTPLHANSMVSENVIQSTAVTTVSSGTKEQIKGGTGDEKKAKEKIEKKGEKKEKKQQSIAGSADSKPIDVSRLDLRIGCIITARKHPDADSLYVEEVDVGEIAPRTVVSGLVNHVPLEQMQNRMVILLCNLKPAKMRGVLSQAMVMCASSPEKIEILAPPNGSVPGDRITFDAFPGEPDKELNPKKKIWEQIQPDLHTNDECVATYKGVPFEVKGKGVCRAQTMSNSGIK

B1: Rat parental (antibody, V domains shown)
VH: AVHLVESGGGFVQPTESLKISCAASGFTFSDAAMYWVRQAPGKGLEWVARIRTKPNNYATYYADSVKGRFTISRDDSKSMVYLQMDNLKTEDTAMYYCTSWSYDFDYWGQGVMVTVSS
VL: DIVMTQGALPNPVPSGESASITCQSSKSLLHSSGKTYLNWYLQRPGQSPHLLIYWMSTRASGVSDRLSGSGSGTDFTLKISSVEAEDVGVYYCQQFLEYPLTFGSGTKLEIK
B2: Chimeric Parental (antibody, V domains shown)
VH: B1 VH
VL: B1 VL
B3: Humanized HC4 + LC3 (antibody)
heavy: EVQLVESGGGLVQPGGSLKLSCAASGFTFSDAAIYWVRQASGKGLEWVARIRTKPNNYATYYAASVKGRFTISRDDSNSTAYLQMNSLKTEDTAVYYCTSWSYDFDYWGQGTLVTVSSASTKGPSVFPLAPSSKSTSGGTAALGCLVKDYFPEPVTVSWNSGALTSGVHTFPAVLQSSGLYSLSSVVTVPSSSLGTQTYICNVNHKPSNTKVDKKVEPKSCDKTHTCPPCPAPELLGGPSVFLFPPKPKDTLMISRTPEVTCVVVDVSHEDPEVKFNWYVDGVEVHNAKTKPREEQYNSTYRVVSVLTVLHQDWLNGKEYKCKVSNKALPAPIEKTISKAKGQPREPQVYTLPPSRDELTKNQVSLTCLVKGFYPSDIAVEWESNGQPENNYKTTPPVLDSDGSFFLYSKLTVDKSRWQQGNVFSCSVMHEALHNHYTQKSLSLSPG
light: DIVMTQSPLSLPVTPGEPASISCRSSKSLLHSSGKTYLNWYLQKPGQSPQLLIYWMSTRASGVPDRFSGSGSGTDFTLKISRVEAEDVGVYYCQQFLEYPLTFGGGTKVEIKRTVAAPSVFIFPPSDEQLKSGTASVVCLLNNFYPREAKVQWKVDNALQSGNSQESVTEQDSKDSTYSLSSTLTLSKADYEKHKVYACEVTHQGLSSPVTKSFNRGEC
B4: Humanized HC2 + LC3 (antibody)
heavy: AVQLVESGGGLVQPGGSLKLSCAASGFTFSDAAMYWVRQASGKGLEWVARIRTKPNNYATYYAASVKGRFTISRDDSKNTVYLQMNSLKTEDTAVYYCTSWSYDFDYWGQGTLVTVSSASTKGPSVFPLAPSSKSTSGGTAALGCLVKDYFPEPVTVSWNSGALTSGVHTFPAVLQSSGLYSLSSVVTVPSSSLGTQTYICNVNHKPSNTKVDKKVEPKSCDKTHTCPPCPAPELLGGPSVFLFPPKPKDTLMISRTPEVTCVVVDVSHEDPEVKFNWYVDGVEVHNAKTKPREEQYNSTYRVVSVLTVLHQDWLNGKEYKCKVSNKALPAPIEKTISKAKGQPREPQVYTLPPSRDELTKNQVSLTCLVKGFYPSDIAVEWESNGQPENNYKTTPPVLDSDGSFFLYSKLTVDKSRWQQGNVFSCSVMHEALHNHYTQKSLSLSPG
light: B3 light
B5: Humanized HC1 + LC3 (antibody)
heavy: not shown
light: B3 light
B6: Humanized HC3 + LC3 (antibody)
heavy: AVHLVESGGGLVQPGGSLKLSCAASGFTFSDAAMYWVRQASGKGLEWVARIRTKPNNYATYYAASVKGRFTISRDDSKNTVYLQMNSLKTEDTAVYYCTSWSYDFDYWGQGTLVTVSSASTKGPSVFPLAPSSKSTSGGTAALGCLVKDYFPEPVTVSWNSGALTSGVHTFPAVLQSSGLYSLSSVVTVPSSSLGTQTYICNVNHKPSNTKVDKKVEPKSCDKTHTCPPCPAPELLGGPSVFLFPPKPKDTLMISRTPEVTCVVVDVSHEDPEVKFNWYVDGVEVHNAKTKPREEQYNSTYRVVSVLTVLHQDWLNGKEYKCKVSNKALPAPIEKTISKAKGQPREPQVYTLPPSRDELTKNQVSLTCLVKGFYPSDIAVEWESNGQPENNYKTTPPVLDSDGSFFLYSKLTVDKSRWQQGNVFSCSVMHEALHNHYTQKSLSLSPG
light: B3 light
B7: Humanized HC5 + LC3 (antibody)
heavy: not shown
light: B3 light
B8: Humanized HC4 + LC4 (antibody)
heavy: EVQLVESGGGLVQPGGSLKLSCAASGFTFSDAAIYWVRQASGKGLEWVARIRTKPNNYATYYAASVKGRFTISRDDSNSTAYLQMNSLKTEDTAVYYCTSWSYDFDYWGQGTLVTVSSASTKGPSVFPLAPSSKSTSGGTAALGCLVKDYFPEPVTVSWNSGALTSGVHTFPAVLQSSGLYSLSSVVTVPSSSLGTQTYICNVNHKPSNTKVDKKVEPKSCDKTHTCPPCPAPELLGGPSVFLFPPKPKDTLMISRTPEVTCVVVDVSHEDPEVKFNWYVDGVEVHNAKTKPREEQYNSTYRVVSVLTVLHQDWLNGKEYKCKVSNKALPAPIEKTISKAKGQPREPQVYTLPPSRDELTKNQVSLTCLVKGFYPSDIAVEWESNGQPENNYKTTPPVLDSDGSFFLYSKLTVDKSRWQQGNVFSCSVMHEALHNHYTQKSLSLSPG
light: B3 light with V3Q
B9: Humanized HC2 + LC4 (antibody)
heavy: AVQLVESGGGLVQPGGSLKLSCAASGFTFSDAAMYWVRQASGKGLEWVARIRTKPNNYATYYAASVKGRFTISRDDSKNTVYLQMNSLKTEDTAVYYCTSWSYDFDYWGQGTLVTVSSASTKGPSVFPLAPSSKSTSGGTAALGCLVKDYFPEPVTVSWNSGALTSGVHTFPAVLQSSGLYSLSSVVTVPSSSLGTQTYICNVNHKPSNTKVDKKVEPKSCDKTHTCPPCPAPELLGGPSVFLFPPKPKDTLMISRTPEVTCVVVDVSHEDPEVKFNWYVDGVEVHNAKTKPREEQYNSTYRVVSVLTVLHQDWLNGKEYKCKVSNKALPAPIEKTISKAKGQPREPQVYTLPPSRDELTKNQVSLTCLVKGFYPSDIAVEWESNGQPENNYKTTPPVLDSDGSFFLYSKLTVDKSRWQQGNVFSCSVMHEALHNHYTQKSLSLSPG
light: B3 light with V3Q
B10: Humanized HC1 + LC4 (antibody)
heavy: not shown
light: B3 light with V3Q
B11: Humanized HC5 + LC4 (antibody)
heavy: not shown
light: B3 light with V3Q
B12: Humanized HC3 + LC4 (antibody)
heavy: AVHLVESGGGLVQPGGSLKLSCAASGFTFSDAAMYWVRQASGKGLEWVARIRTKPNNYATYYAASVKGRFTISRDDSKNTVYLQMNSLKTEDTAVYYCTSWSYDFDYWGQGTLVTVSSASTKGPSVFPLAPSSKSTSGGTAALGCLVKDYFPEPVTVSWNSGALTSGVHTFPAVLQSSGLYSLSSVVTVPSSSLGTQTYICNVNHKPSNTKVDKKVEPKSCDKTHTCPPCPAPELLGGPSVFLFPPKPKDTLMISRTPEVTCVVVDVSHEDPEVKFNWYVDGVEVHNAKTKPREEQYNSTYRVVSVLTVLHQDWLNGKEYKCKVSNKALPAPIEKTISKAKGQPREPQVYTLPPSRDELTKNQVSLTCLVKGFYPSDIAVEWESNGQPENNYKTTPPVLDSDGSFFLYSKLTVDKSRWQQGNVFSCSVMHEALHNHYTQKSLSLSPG
light: B3 light with V3Q
B13: Humanized HC5 + LC2 (antibody)
heavy: not shown
light: B3 light with G105Q, V109L
B14: Humanized HC3 + LC2 (antibody)
heavy: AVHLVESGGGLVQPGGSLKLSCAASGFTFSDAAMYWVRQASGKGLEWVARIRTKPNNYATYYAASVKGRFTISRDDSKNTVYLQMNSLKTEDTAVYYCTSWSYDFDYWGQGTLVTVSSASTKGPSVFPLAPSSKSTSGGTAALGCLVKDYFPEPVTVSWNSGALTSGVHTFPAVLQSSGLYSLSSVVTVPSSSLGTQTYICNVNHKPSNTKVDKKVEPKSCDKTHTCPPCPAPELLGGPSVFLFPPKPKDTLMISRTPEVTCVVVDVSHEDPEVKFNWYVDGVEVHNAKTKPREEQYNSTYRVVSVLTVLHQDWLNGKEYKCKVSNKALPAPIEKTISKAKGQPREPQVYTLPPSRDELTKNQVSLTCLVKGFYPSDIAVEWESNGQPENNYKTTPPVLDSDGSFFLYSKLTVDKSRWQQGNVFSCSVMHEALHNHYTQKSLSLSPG
light: B3 light with G105Q, V109L
B15: Humanized HC2 + LC2 (antibody)
heavy: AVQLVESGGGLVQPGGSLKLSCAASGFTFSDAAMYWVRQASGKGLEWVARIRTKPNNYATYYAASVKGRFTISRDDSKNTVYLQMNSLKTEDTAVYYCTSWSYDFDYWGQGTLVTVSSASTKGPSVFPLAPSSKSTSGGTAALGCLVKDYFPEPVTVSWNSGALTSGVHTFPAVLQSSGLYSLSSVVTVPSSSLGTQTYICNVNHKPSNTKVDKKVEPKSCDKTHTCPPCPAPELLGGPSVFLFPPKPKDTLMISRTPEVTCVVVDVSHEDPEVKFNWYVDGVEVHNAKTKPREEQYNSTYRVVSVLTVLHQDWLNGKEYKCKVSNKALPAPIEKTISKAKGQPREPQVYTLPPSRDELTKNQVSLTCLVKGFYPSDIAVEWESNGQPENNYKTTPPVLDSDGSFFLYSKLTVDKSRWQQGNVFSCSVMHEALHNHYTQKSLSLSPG
light: B3 light with G105Q, V109L
B16: Humanized HC4 + LC2 (antibody)
heavy: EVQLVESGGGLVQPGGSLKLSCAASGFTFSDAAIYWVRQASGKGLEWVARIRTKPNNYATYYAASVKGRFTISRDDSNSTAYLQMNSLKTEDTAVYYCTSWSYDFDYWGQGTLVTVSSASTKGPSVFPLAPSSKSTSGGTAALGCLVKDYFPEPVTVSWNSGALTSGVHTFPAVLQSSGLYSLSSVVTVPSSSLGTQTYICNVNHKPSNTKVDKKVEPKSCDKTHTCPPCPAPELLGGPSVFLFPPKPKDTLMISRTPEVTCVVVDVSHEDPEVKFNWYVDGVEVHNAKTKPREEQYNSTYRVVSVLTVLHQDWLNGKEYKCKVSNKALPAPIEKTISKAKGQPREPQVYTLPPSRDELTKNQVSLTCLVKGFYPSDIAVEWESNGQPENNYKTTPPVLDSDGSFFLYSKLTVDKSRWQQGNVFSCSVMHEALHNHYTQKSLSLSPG
light: B3 light with G105Q, V109L
B17: Humanized HC1 + LC2 (antibody)
heavy: not shown
light: B3 light with G105Q, V109L
B18: Humanized HC5 + LC1 (antibody, V domains shown)
VH: AVQLVESGGGLVQPGGSLKLSCAASGFTFSDAAMYWVRQASGKGLEWVARIRTKPNNYATYYAASVKGRFTISRDDSNSTAYLQMNSLKTEDTAVYYCTSWSYDFDYWGQGTLVTVSS
VL: DIVMTQSPLSLPVTPGEPASISCRSSKSLLHSSGKTYLNWYLQKPGQSPQLLIYWMSNRASGVPDRFSGSGSGTDFTLKISRVEAEDVGVYYCQQFLEYPLTFGQGTKLEIKR
B19: Humanized HC1 + LC1 (antibody, V domains shown)
VH: B18 VH with A1E, A49G, N78K, S79N
VL: B18 VL
B20: Humanized HC4 + LC1 (antibody, V domains shown)
VH: B18 VH with A1E, M34I
VL: B18 VL
B21: Humanized HC2 + LC1 (antibody)
heavy: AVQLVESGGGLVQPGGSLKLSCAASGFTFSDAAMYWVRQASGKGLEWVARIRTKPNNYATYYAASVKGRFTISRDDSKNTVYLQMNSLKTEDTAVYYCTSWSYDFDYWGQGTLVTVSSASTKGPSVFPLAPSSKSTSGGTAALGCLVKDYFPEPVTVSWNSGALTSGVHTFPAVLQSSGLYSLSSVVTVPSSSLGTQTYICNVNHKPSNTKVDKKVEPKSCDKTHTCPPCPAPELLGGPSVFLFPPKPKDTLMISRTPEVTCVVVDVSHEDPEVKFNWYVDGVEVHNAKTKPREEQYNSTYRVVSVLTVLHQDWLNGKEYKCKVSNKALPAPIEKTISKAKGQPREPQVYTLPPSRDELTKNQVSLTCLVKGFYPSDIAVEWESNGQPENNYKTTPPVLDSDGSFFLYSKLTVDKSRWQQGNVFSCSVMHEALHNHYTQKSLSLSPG
light: B3 light with T58N, G105Q, V109L
B22: Humanized HC3 + LC1 (antibody)
heavy: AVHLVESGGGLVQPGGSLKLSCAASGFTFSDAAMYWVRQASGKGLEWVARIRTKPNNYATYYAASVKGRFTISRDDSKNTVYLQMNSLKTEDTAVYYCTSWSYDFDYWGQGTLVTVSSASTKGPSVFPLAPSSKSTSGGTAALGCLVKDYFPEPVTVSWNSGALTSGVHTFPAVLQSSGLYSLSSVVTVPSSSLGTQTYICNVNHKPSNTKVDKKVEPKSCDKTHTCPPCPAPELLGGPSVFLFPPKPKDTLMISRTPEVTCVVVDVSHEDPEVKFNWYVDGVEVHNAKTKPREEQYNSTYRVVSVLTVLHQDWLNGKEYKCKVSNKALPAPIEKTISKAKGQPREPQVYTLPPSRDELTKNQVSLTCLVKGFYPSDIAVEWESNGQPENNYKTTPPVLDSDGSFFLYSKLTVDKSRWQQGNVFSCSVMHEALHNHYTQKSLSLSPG
light: B3 light with T58N, G105Q, V109L

Molecular target: T1, human pro-EMAPII
Assay: ELISA

Row | Binder | EC50
1 | B1 | 3.39 µg/mL
2 | B2 | 0.329 µg/mL
3 | B3 | 0.229 µg/mL
4 | B4 | 0.075 µg/mL
5 | B5 | 0.108 µg/mL
6 | B6 | 0.077 µg/mL
7 | B7 | 0.2 µg/mL

Molecular target: T1, human pro-EMAPII
Assay: ELISA
Remark: another data set of the same source

Row | Binder | EC50
8 | B1 | 3.39 µg/mL
9 | B2 | 0.329 µg/mL
10 | B8 | 0.197 µg/mL
11 | B9 | 0.078 µg/mL
12 | B10 | 0.113 µg/mL
13 | B11 | 0.166 µg/mL
14 | B12 | 0.07 µg/mL

Molecular target: T1, human pro-EMAPII
Assay: ELISA
Remark: another data set of the same source

Row | Binder | EC50
15 | B1 | 3.6 µg/mL
16 | B2 | 0.361 µg/mL
17 | B13 | 0.17 µg/mL
18 | B14 | 0.081 µg/mL
19 | B15 | 0.112 µg/mL
20 | B16 | 0.271 µg/mL
21 | B17 | 0.089 µg/mL

Molecular target: T1, human pro-EMAPII
Assay: ELISA
Remark: another data set of the same source

Row | Binder | EC50
22 | B1 | 3.6 µg/mL
23 | B2 | 0.361 µg/mL
24 | B18 | 0.163 µg/mL
25 | B19 | 0.098 µg/mL
26 | B20 | 0.198 µg/mL
27 | B21 | 0.076 µg/mL
28 | B22 | 0.082 µg/mL
